Test results reported in US20220089705A1.

Tests used:
[1] = target: aP2 (species not stated in the passage) (Homo sapiens (Human)) (UniProt P15090); assay: column head 'Affinity'; assay and aP2 species not printed on the sheet (the two other values of the column, 6.03 and 5.82 µM, equal the human aP2 averages of FIG. 31)
[2] = target: aP2 (species not stated in the passage) (Homo sapiens (Human)) (UniProt P15090); assay: SPR and Octet ranking of H3 variants; value of the parent H3; species of aP2 not stated

Kd [1] [µM] | Kd [2] [µM] | Binder
6.5 |  | CA33, rabbit-mouse hybrid anti-aP2 monoclonal antibody (Rabbit Ab 909) (antibody, V domains shown) VH: QSVEESGGRLVTPGTPLTLTCTVSGFSLSTYYMSWVRQAPGKGLEWIGIIYPSGSTYCASWAKGRFTISKASTTVDLKITSPTTEDTATYFCARPDNDGTSGYLSGFGLWGQGTLVTVSS VL: DVVMTQTPASVSEPVGGTVTIKCQASEDISRYLVWYQQKPGQPPKRLIYKASTLASGVPSRFKGSGSGTDFTLTISDLECDDAATYYCQCTYGTYAGSFFYSFGGGTEVVVE
 | < 0.07 | H3, mouse anti-aP2 monoclonal antibody (H3 gL1/gH1) (antibody, V domains shown) VH: QVQLQQPGAELVKPGASVKLSCKASGYTFTSNWITWVKQRPGQGLEWIGDIYPGSGSTTNNEKFKSKATLTVDTSSSTAYMQLSSLTSEDSAVYYCARLRGYYDYFDFWGQGTTLTVSS VL: EVVLTQSPALMAASPGEKVTITCSVSSSISSSNLHWYQQKSETSPKPWIYGTSNLASGVPVRFSGSGSGTSYSLTISSMEAEDAATYYCQQWSHYPLTFGAGTKLELK
